The source of these data is article PMC2704292.

The assay addresses actin of the thin filaments of rabbit psoas myofibrils (rabbit (endogenous in psoas myofibrils)) (UniProt P68135). The assay is described as follows: co-sedimentation.

“rabbit fast skeletal tropomyosin (from UniProt P58772 1-284; P58776 1-284) (natural protein)” had an average level of replacement of Tm in reconstituted myofibrils of 96%.
